The source of these data is PMC12479363 (Nature Immunology, 2025).

This assay deals with SK56. Put plainly: MST.

B1: GSDMC-NT–GFP (domain or fragment)
chain: MPSMLERISKNLVKEIGSKDLTPVKYLLSATKLRQFVILRKKKDSRSSFWEQSDYVPVEFSLNDILEPSSSVLETVVTGPFHFSDIMIQKHKADMGVNVGIEVSVSGEASVDHGCSLEFQIVTIPSPNLEDFQKRKLLDPEPSFLKECRRRGDNLYVVTEAVELINNTVLYDSSSVNILGKIALWITYGKGQGQGESLRVKKKALTLQKGMVMAYKRKQLVIKEKAILISDDDEQRTFQD
The molecule B1 returned a dissociation constant (Kd) of approximately 220 nM.
